Measurements taken from paper PMC5573662 (Bioorganic & medicinal chemistry, 2017).
Square brackets hold non-standard residues; d marks the D form. Ends that are not written are not given here. His(π-(CH2)8Ph) = N[C@@H](Cc1cncn1CCCCCCCCc1ccccc1)C(=O)O; pT = C[C@@H](OP(=O)(O)O)[C@H](N)C(=O)O

Target: full-length polo-like kinase 1 (Plk1) (UniProt P53350 1-603)
Experiment: ELISA

Chain of full-length polo-like kinase 1 (Plk1) (P53350 whole entry): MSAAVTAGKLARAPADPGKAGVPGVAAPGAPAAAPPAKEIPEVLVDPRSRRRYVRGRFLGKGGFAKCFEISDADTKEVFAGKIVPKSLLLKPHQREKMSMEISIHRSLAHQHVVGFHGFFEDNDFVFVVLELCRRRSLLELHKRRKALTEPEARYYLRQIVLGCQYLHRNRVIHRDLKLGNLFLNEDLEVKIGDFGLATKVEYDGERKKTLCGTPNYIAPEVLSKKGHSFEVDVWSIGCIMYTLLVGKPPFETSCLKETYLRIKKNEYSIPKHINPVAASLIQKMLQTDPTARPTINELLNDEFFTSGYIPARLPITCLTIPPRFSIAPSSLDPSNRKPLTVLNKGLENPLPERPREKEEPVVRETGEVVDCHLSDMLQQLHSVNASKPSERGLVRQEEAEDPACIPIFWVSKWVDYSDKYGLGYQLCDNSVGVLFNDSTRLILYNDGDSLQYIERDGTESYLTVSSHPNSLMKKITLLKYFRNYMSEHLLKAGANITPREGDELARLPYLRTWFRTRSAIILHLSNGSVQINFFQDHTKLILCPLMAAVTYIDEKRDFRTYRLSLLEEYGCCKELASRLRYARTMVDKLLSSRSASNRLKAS

PL[His(π-(CH2)8Ph)]S[pT] [PLH*SpT (2a)]
IC50: 0.181 µM
